One experiment concerns ANPEP. Briefly: ANPEP expression by quantitative real-time RT-PCR in cells differentiating from human iPS cells to enterocyte-like cells. The experiment is classed as cell-based. The settings on record: compound added with BIO and DAPT, 5 days culture; versus control without the compounds; FIG. 2B. As for the experimental part: (§1) The definitive endoderm cells generated from the human iPS cell line (Tic) by the method described in Example 1 above were further cultured for 15 days using the medium 3. During a period from day 4 to day 19 after the initiation of differentiation induction, BIO (5 μM) and DAPT (10 μM) were added to the culture system. Simultaneously with the addition of the BIO and the DAPT, the cells were further cultured for 5 days using the medium 3 supplemented with any one of phorbol-myristate-acetate (PMA), transforming growth factor β1 (TGEβ1), Wortmannin, Noggin, SB431542, Follistatin, EGF, R-spondin1, Pentagastrin, or Wnt3a (FIG. 2A and FIG. 3A).
(§2) With regard to the measurement of the enterocyte markers ANPEP and VILLIN, each of the enterocyte markers was measured by a quantitative real-time RT-PCR method using SYBR Green gene expression assays (APPLIED BIOSYSTEMS). […] Thus, high expressions of ANPEP and VILLIN were found when the cells were cultured in the system containing SB431542, EGF, or Wnt3a.
(§3) The quantitative real-time RT-PCR was performed by the following method. […] A quantitative real-time RT-PCR method using SYBR Green gene expression assays (APPLIED BIOSYSTEMS) was performed, and quantification was performed with STEPONEPLUS real-time PCR System (APPLIED BIOSYSTEMS).
(In qPCR the cycle at which signal appears reflects the starting amount.)

For another experiment, the system named is VILLIN. In words: VILLIN expression by quantitative real-time RT-PCR in cells differentiating from human iPS cells to enterocyte-like cells. The format is cell-based. Conditions: compound added with BIO and DAPT, 5 days culture; versus control without the compounds; FIG. 3B. As for the experimental part: as §1, §2, §3

B1: Wnt3a (protein, UniProt P56704 19-352, looked up)
Protein Wnt-3a: SYPIWWSLAVGPQYSSLGSQPILCASIPGLVPKQLRFCRNYVEIMPSVAEGIKIGIQECQHQFRGRRWNCTTVHDSLAIFGPVLDKATRESAFVHAIASAGVAFAVTRSCAEGTAAICGCSSRHQGSPGKGWKWGGCSEDIEFGGMVSREFADARENRPDARSAMNRHNNEAGRQAIASHMHLKCKCHGLSGSCEVKTCWWSQPDFRAIGDFLKDKYDSASEMVVEKHRESRGWVETLRPRYTYFKVPTERDLVYYEASPNFCEPNPETGSFGTRDRTCNVSSHGIDGCDLLCCGRGHNARAERRREKCRCVFHWCCYVSCQECTRVYDVHTCK
notes: humoral factor added to the culture system
With B1, the “expression of ANPEP” value with ANPEP is recorded as “high value”. In the experiment on VILLIN, the “expression of VILLIN” value is “high value”.

For the origin of these results see patent US10889805B2, “Intestinal epithelioid cells” (National Institutes of Biomedical Innovation, Health and …, priority 2015, dated 2021).
